According to a protein production outcome set (Wang et al. 2014):

Test: label from the status in PepcDB records
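Note: failed if final PepcDB status was selected cloned or expressed and not failed if soluble or beyond.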

| Sequence | protein production |
| --- | --- |
| AADHVKGDGKLTSKKISVADYNEIKVDGVIDFNYEQSDDPSTVEVTVDQNLHPYVNIEVKDRVLTIAFKGAKVDHFTKFIVKTNSKWLAAAKVSGNANFMVNSPLTGDETVIKANANSLVQLKETVTVGKLDLNVSGSANMVVNHLEADKIECDIDGSGSITIKKGNAKEGDYSIVSSGDIHAFGLAVPQLSCKVTGNGLAEVHATDNLKANVVGKGNIRYKGPTAVQQRIIGKGTVEEVKE | not failed |
| ADGILGVDKLGHFIFANESATKITGYSEEQILSSDLISLFAGDNKENLTFEDTEVYKAIQSKEVIRISNEYVLMSGARELPLEYSISPVEDDE | failed |
| ADNNKWKPLFGKNLENANYNPEVWSETDGVLGAVKDESIWTKDEYENFELDLDFKTDVGTNSGVVVYCTDTKDWIPNSVEIQIADDHCEKWGNGKPYEKCGAIYGHLGAVQDKVVKKPGEWNHMRIKCAGQHIMVILNGKKVTEMDMSKWTSGTKNPDGSDIPSWLPKPFAELPTKGFIGLQGKHGDSLIWFRNIKIRSL | not failed |
| ADPFASITHLVDSAMVNKTDSIDREKTSDEPKPIEADESFDDFIYNFASDDALQRQRVVFPLPYYNGERASKIDRKYWKHDDLFAKQSYYTLLFDREEDMDLVGDTSLTSVQVEWIFVKKRMVKKYYFERIKGAWMLEAINLRPIEENENEDFVEFFGHFATDSIFQSRRIRQPLVFVTTDPDDDFSILETTLDLNQWFAFKPALPADKLSNINYGQQNDDNASHKILALKGIGNGFSNILYFQRKDSGWELYKFEDTSI | not failed |
| ADVSATVSDMGSLLTAVTLAGVLDYYSVGTKVIKAPKKMVEQQILMTLQTMASLVESSGVDGLVKALNPELLSKAASSMHLLDQQKDLDAALEILTHL | not failed |
| AENNMVRLSRIIIDPERLEEYNAYLKEEIEVSMRLEPGVLVLYAVAEKERPNHVTILEIYADEAAYKSHIATPHFKKYKEGTLDMVQMLELIDATPLIPGLKMK | not failed |
| AGHRGQCVGRHREVVAIDNSKATNPHAADSALAGFSSVVWVAGGQLKGAEIDELIVRHAGRIKAVALLGVDRDVIEDSVRTHIPGIPVLSVSETDPRRAMDEAVAWSVSQAEAGDAIVLAPAAASLDMYTGMGQRGDMFATAIAQHLHD | failed |
| AGNETVTEGFKEGQVGSSAMPHKMNARSCERVGGLQVILRGYLTMVADLSGQQWNEGDVFCSVIRRVALPDAFFALDGMYETFLTVLAEFGAFPAMIDRELERYLPFLATTRILMAAVRVGVGRETAHEVIKENAVAVALNMRENGGEQDLIDRLAADERLPMTREQLDEALADRHAFIGAAESQVARVVDRVNDLVRRYPAAAQYTPGDIL | failed |
| AGQVVHTETTEVVLTADPVTGFGIQLQGSVFATETLSSPPLISYIEADSPAERCGVLQIGDRVMAINGIPTEDSTFEEANQLLRDSSITSKVTLEIEFDVAESVIPSSG | not failed |
| AGSMEDIPVEEAVLTGVATDNSEAKITVLGIPDSPGSASAVFRALADAEINIDTVLQNISSLEDNRTDITFTCPRADGPHAMELLRNLQAKNDWQNVLYDDQIGKVSLVGAGMKSHPGVTAEFCEALRDAGVNIELISTSEIRISVLIRESDVDVAARAIHEKFELGGETEAIVYAGTGR | failed |
| AHHDEVLDIPKGVEVYEIEGPFFFGIANRFEEIMNTLGDHPDVRIIRMRHVPFMDSTGMHNLENLIKMSRKEGVSIVLSGVRKDVHEELATAGIVELLGEENVCADIQAALRQAQAIAQGA | failed |
| AIAAAPIESLLNEICESEDPIEELKSLRTAVLATPVSGLRPAVSGARLEIIFSLLNTNDKEQIEVCVEILSRVLQALEPVQLAQNYRTALQSGLNHPDDSVKVLTLTQIGRVAGHTEGVTQMLNNVEILHDVIQCISVERIAVAKEAIAALSKLSNTKAGLDALFRSDLLNKLKDVMLTSDIIRYRVYELIVEVSTVSPVSLGYCANSGLISQMLEELTGDDVLVRATAIEMVTNLAQSQHGRQYLAQQGIMDKISSVQKIFGAHNYLKLKTYLNEGSYYVTAVSAVTTEGAD | failed |
| AIAAEAVLRVARRQLSQRGGSGAPILLRQMFEPVSCTFTYLLGDRESREAVLIDPVLETAPRDAQLIKELGLRLLYAVNTHCHADHITGSGLLRSLLPGCQSVISRLSGAQADLHIEDGDSIRFGRFALETRASPGHTPGCVTFVLNDHSMAFTGDALLIRGCGRTDFQQGCAKTLYHSVHEKIFTLPGDCLIYPAHDYHGFTVSTVEEERTLNPRLTLSCEEFVKIMGNLNLPKPQQIDFAVPANMRCGVQTPTA | failed |
